Data from paper PMC6520365, “Structural and functional characterization of the PDZ domain of the human phosphatase PTPN3 and its interaction with the human papillomavirus E6 oncoprotein” (Scientific Reports, 2019).

B1: p38γ PBM peptide (C-terminal sequence of the MAP kinase p38γ) (peptide)
peptide: SWARVSKETPL
notes: also called MAPK12 PBM; source: synthetic peptide (Fmoc solid phase, Proteogenix)
B2: HBVc PBM peptide (C-terminal sequence of the hepatitis B virus core protein) (peptide)
peptide: RRRRSQSRESQC
notes: also called HBV Core PBM; source: synthetic peptide (Fmoc solid phase, Proteogenix)
B3: HPV16E6 PBM peptide (C-terminal sequence of the human papillomavirus type 16 E6 protein) (peptide)
peptide: RSSRTRRETQL
notes: Only the last seven residues (TRRETQL) are seen in the crystal; also called PBM of HPV16 E6; source: synthetic peptide (Fmoc solid phase, Proteogenix)
B4: PDZ domain of the human protein tyrosine phosphatase non-receptor type 3 (PTPN3-PDZ) (domain or fragment)
chain: GDSYLVLIRITPDEDGKFGFNLKGGVDQKMPLVVSRINPESPADTCIPKLNEGDQIVLINGRDISEHTHDQVVMFIKASRESHSRELALVIRRR

Legend:
Conditions in all cases: both partners purified
[1] = biological target: T1, PDZ domain of the human protein tyrosine phosphatase non-receptor type 3 (PTPN3-PDZ) (human, UniProt P26045-1 504-913, Start 504 is printed. End 597 comes from the 6HKS entity and fits the printed 94 residues (89 non-Pro). GST removed by TEV; any residual tag residues left out.); assay: NMR titration; unlabeled peptide added stepwise to 15N-labeled PTPN3-PDZ at 95 or 149 μM; 1H,15N HSQC chemical shift perturbations; 15 °C; 50 mM Tris/HCl pH 7.5, 150 mM NaCl, 0.5 mM TCEP; KD from 8 to 14 fitted curves
[2] = biological target: PTPN3-PDZ_(Next), PDZ domain of human PTPN3 extended at the N-terminus by 15 residues of its wild-type … (human, UniProt P26045-1 489-913, Start 489 is 504 minus the 15 residues printed. End 597 comes from the 6HKS entity (residues 6-114); its GAMGS tag remnant is left out.); assay: AUC; sedimentation velocity, PTPN3-PDZ_(Next) at 70 μM with PBM peptide, 20 °C, 42000 rpm
[3] = biological target: T1, PDZ domain of the human protein …; assay: AUC; sedimentation velocity, PTPN3-PDZ at 70 μM with HBVc PBM peptide, 20 °C, 42000 rpm
[4] = biological target: HPV18E6 PBM peptide (C-terminal sequence of the human papillomavirus type 18 E6 protein) (human papillomavirus type 18); assay: NMR titration; unlabeled peptide added stepwise to 15N-labeled PTPN3-PDZ at 95 or 149 μM; 1H,15N HSQC chemical shift perturbations; 15 °C; 50 mM Tris/HCl pH 7.5, 150 mM NaCl, 0.5 mM TCEP; KD from 8 to 14 fitted curves

PTPN3-PDZ_(Next), PDZ domain of human PTPN3 extended at the N-terminus by 15 residues of its wild-type …, sequence (P26045 489-913): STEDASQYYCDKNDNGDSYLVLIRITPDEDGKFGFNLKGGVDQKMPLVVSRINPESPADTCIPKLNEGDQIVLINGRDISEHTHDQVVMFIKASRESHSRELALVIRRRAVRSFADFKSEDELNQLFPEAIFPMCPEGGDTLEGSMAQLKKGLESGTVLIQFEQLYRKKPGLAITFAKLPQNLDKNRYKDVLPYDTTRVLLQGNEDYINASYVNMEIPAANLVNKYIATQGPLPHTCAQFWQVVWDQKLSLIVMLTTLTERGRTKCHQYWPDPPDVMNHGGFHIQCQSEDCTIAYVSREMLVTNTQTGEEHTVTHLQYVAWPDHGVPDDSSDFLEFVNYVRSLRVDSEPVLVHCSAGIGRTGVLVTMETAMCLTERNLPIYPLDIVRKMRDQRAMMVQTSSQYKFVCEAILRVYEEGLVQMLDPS

Binder | Kd [1] | stoichiometry N [2] | stoichiometry N [3] | Kd [4]
B1 | 26 µM | – | – | –
B2 | 29 µM | 1 | 1 | –
B3 | 53 µM | 1 | – | –
B4 | – | – | – | 37 µM
